± gives the standard deviation of the averaged measurements.
Experiment: total protein half-life in vivo (active degradation + dilution); higher = more stable protein
[1] = E. coli NCM3722 delta-clpP delta-lon delta-hslV, growth: N-lim chemostat, doubling time 6 h
[2] = E. coli NCM3722 delta-clpP, growth: N-lim chemostat, doubling time 6 h
[3] = E. coli NCM3722 delta-hslV, growth: N-lim chemostat, doubling time 6 h
[4] = E. coli NCM3722 delta-lon, growth: N-lim chemostat, doubling time 6 h
[5] = E. coli NCM3722 delta-smpB, growth: N-lim chemostat, doubling time 6 h
[6] = wild type E. coli NCM3722, growth: C-lim chemostat, doubling time 3 h
[7] = wild type E. coli NCM3722, growth: C-lim chemostat, doubling time 6 h
[8] = wild type E. coli NCM3722, growth: C-lim chemostat, doubling time 12 h
[9] = wild type E. coli NCM3722, growth: N-lim chemostat, doubling time 6 h
[10] = wild type E. coli NCM3722, growth: N-lim chemostat, doubling time 12 h
[11] = wild type E. coli NCM3722, growth: P-lim chemostat, doubling time 6 h
[12] = wild type E. coli NCM3722, growth: P-lim chemostat, doubling time 12 h

Sequence | total protein half-life in vivo [1] [h] | total protein half-life in vivo [2] [h] | total protein half-life in vivo [3] [h] | total protein half-life in vivo [4] [h] | total protein half-life in vivo [5] [h] | total protein half-life in vivo [6] [h] | total protein half-life in vivo [7] [h] | total protein half-life in vivo [8] [h] | total protein half-life in vivo [9] [h] | total protein half-life in vivo [10] [h] | total protein half-life in vivo [11] [h] | total protein half-life in vivo [12] [h]
MCEGYVEKPLYLLIAEWMMAENRWVIAREISIHFDIEHSKAVNTLTYILSEVTEISCEVKMIPNKLEGRGCQCQRLVKVVDIDEQIYARLRNNSREKLVGVRKTPRIPAVPLTELNREQKWQMMLSKSMRR [P0AE58] | 3.96 ± 0.18 |  |  |  |  |  |  |  |  |  |  | 
MDFSIMVYAVIALVGVAIGWLFASYQHAQQKAEQLAEREEMVAELSAAKQQITQSEHWRAECELLNNEVRSLQSINTSLEADLREVTTRMEAAQQHADDKIRQMINSEQRLSEQFENLANRIFEHSNRRVDEQNRQSLNSLLSPLREQLDGFRRQVQDSFGKEAQERHTLTHEIRNLQQLNAQMAQEAINLTRALKGDNKTQGNWGEVVLTRVLEASGLREGYEYETQVSIENDARSRMQPDVIVRLPQGKDVVIDAKMTLVAYERYFNAEDDYTRESALQEHIASVRNHIRLLGRKDYQQLPGLRTLDYVLMFIPVEPAFLLALDRQPELITEALKNNIMLVSPTTLLVALRTIANLWRYEHQSRNAQQIADRASKLYDKMRLFIDDMSAIGQSLDKAQDNYRQAMKKLSSGRGNVLAQAEAFRGLGVEIKREINPDLAEQAVSQDEEYRLRSVPEQPNDEAYQRDDEYNQQSR [P0AG71] | 6.83 ± 1.6 | 5.88 ± 0.096 | 4.5 ± 0.072 | 3.82 ± 0.52 | 3.36 ± 0.004 | 2.76 ± 0.076 | 4.87 ± 0.12 | 7.51 ± 0.44 | 3.91 ± 0.74 | 7.2 ± 1.9 | 4.59 ± 1.3 | 7.03 ± 0.77
MSRTTTVDGAPASDTDKQSISQPNQFIKRGTPQFMRVTLALFSAGLATFALLYCVQPILPVLSQEFGLTPANSSISLSISTAMLAIGLLFTGPLSDAIGRKPVMVTALLLASICTLLSTMMTSWHGILIMRALIGLSLSGVAAVGMTYLSEEIHPSFVAFSMGLYISGNSIGGMSGRLISGVFTDFFNWRIALAAIGCFALASALMFWKILPESRHFRPTSLRPKTLFINFRLHWRDRGLPLLFAEGFLLMGSFVTLFNYIGYRLMLSPWHVSQAVVGLLSLAYLTGTWSSPKAGTMTTRYGRGPVMLFSTGVMLFGLLMTLFSSLWLIFAGMLLFSAGFFAAHSVASSWIGPRAKRAKGQASSLYLFSYYLGSSIAGTLGGVFWHNYGWNGVGAFIALMLVIALLVGTRLHRRLHA | 1.3 | 1.36 ± 0.35 | 1.46 ± 0.017 | 1.1 ± 0.07 | 2.24 ± 0.1 |  |  |  | 1.42 ± 0.079 | 2.65 ± 0.55 |  | 2.5
MKTVTVKDLVIGTGAPKIIVSLMAKDIASVKSEALAYREADFDILEWRVDHYADLSNVESVMAAAKILRETMPEKPLLFTFRSAKEGGEQAISTEAYIALNRAAIDSGLVDMIDLELFTGDDQVKETVAYAHAHDVKVVMSNHDFHKTPEAEEIIARLRKMQSFDADIPKIALMPQSTSDVLTLLAATLEMQEQYADRPIITMSMAKTGVISRLAGEVFGSAATFGAVKKASAPGQISVNDLRTVLTILHQA | 3.99 ± 0.25 | 4.15 ± 0.66 | 3.51 ± 0.0088 | 4.3 ± 0.52 | 3.62 ± 0.46 | > 4 | 5.56 ± 1 | 9.4 ± 0.9 | 3.68 ± 0.14 | 5.5 ± 0.19 | 5.38 ± 0.21 | 11 ± 0.46
MESPLGSDLARLVRIWRALIDHRLKPLELTQTHWVTLHNIHQLPPDQSQIQLAKAIGIEQPSLVRTLDQLEEKGLISRQTCASDRRAKRIKLTEKAEPLISEMEAVINKTRAEILHGISAEELEQLITLIAKLEHNIIELQAKG [P0A8W2] | 5.958 ± 0.04 | 5.81 ± 0.18 | 5.88 ± 0.54 |  | 5.79 ± 0.084 | 3.38 ± 0.4 | 5.19 ± 0.19 | 11.38 ± 0.033 | 5.01 ± 0.34 | 11 ± 2.7 | 4.64 ± 1.1 | 9.76 ± 0.57

From the supplement of paper PMC11246515
